From patent US20250195679A1, “ANTIBODY-DRUG CONJUGATE AND USE THEREOF” (SHANGHAI HUAOTA BIOPHARMACEUTICAL CO., LTD., priority 2022, published 2025)

T1: human CD73 (CHOK1-huCD73-3F4 cells) (Homo sapiens, UniProt P21589)
T1 construct: host or cells: CHOK1-huCD73-3F4 (CHO-K1 clone)
T1 sequence (P21589 27-549): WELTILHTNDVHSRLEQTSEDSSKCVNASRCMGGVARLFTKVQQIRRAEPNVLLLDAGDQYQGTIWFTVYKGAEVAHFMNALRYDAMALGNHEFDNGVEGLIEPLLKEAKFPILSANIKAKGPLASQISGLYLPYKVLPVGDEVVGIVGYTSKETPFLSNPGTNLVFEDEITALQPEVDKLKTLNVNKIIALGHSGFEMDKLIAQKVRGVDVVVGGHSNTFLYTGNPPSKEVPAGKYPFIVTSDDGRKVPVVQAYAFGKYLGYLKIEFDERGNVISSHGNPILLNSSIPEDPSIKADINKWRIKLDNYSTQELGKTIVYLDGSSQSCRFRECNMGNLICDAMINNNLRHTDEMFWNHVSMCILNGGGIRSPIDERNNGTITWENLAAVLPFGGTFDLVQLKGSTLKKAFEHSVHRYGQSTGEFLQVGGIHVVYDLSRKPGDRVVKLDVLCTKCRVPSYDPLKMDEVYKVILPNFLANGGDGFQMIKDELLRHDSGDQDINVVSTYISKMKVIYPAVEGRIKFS

B1: Antibody-drug conjugate 1: 900698 antibody cysteine-conjugated to SN-38 via Mc-VC-PAB-DMEDA-PEG linker, DAR about 7.8 (conjugate)
VH: QVQLVESGGGLVKPGGSLRLSCAASGFTFSKYAMSWIRQAPGKGLEWVAEISSGGGYINYADSVKGRFTISRDNAKNSLYLQMNSLRAEDTAVYYCARAIYYYGSSYNYYAMDYWGQGTTVTVSS
VL: DIQMTQSPSSLSASVGDRVTITCRASQDVGTAEAWYQQKPGKAPKLLIYWASTRHTGVPSRFSGSGSGTDFTLTISSLQPEDFATYYCQQYSSYPLTFGQGTKLEIK
B2: Antibody-drug conjugate 2: 900698 antibody cysteine-conjugated to SN-38 via MP2-VC-PAB-DMEDA-PEG linker, DAR about 7.8 (conjugate)
VH: QVQLVESGGGLVKPGGSLRLSCAASGFTFSKYAMSWIRQAPGKGLEWVAEISSGGGYINYADSVKGRFTISRDNAKNSLYLQMNSLRAEDTAVYYCARAIYYYGSSYNYYAMDYWGQGTTVTVSS
VL: DIQMTQSPSSLSASVGDRVTITCRASQDVGTAEAWYQQKPGKAPKLLIYWASTRHTGVPSRFSGSGSGTDFTLTISSLQPEDFATYYCQQYSSYPLTFGQGTKLEIK
B3: 900698: anti-CD73 antibody, VH SEQ ID NO: 35, VL SEQ ID NO: 34 (antibody, V domains shown)
VH: QVQLVESGGGLVKPGGSLRLSCAASGFTFSKYAMSWIRQAPGKGLEWVAEISSGGGYINYADSVKGRFTISRDNAKNSLYLQMNSLRAEDTAVYYCARAIYYYGSSYNYYAMDYWGQGTTVTVSS
VL: DIQMTQSPSSLSASVGDRVTITCRASQDVGTAEAWYQQKPGKAPKLLIYWASTRHTGVPSRFSGSGSGTDFTLTISSLQPEDFATYYCQQYSSYPLTFGQGTKLEIK
modifications: 900696, 900698 (VH); 900695, 900698 (VL)

Assays:
Monkey CD73 = assay: Biacore binding kinetics with monkey CD73 protein; conditions: Monkey CD73, Biacore T200, protein A chip, 25° C., 1:1 binding model
Description: The binding kinetics of the antibody-drug conjugate 1 and the antibody-drug conjugate 2 prepared in Example 1 and the 900698 naked antibody with a human CD73 protein (manufacturer: ACRO Biosystems, Cat. No. CD3-H52H7) and a monkey CD73 protein (manufacturer: Novoprotein, Cat. No. CI21) were assayed using Biacore (GE, model: T200), with an assay buffer of HBS-EP+ (pH 7.4) and a protein A chip (manufacturer: GE, Cat. No. 29-1275-56).
The temperature for the sample compartment and the flow path was set to 25° C. The protein A chip captured each antigen-binding protein as a ligand, fixing about 100 RU. The human CD73 protein was diluted with the assay buffer to a series of concentrations of 50 nM, 25 nM, 12.5 nM, 6.25 nM, 3.12 nM, and 1.57 nM, serving as analytes, and the assay buffer was used as a 0 concentration control. At a flow rate of 30 μL/min, association was conducted for 120 s, and dissociation was conducted for 600 s. Glycine (10 mM, pH 1.5) was used for regeneration at a flow rate of 50 μL/min for 60 s in a multi-cycle kinetic assay. A 1:1 binding model was used, and the Fit Local mode was selected to determine the association rate constant (ka), dissociation rate constant (kd), and equilibrium dissociation constant (KD).

MDA-MB-231 cells = assay: Killing of tumor cells highly expressing CD73 (CellTiter-Glo); assay type: cell-based, human; conditions: cells highly expressing CD73, 5 days, FIG. 6
Description: (§1) The specific procedures were as follows: MDA-MB-231 cells and MCF-7 cells were prepared into cell suspensions at densities of 8E4 cells/mL and 7.5E5 cells/mL, respectively, which were then each added onto a 96-well cell culture plate at 100 μL per well. The 96-well cell culture plate was sealed with liquid and then incubated in an incubator at 37° C. with 5% CO2 for 6 h. With an assay medium, the antibody-drug conjugate 1, the antibody-drug conjugate 2, and the 900698 naked antibody were each diluted to 400 μg/mL and then subjected to a 2-fold dilution to give 8 concentrations, resulting in a total of 9 concentrations. The same dilution procedure was performed for the Buffer solution as for the antibody-drug conjugate 1. The gradient dilution solutions were each added at 50 μL/well to the 96-well cell culture plate after the above incubation was completed. Each sample well was then supplemented with 50 μL of the corresponding assay medium. The 96-well cell culture plate was further incubated in an incubator at 37° C. with 5% CO2 for another 5 days. After the incubation was completed, the 96-well plate was removed from the incubator, 100 μL of culture medium was aspirated from each well, and then the equilibrated Celltiter-Glo Luminescent Cell Viability Assay reagent (Promega, #G7573) was added at 100 μL/well. After shaking for reaction in the dark at room temperature for 10 min, 100 μL of culture medium was taken from each well, transferred to the corresponding well of a 96-well black plate, and then subjected to full-wavelength detection using a microplate reader.

MCF-7 cells = assay: Killing of tumor cells not expressing CD73 (CellTiter-Glo); assay type: cell-based; conditions: cells not expressing CD73, 5 days, FIG. 5
Description: as §1

[1] = target: T1, human CD73 (CHOK1-huCD73-3F4 cells); assay: Cell binding activity to human CD73 antigen expressed on membrane (flow cytometry); assay type: cell-based; conditions: FACS, FIG. 2
Description: The binding activity of the antibody-drug conjugate 1 and the antibody-drug conjugate 2 prepared in Example 1 and the 900698 naked antibody to cells expressing human CD73 (CHOK1-huCD73-3F4, Huabo Biopharm) was assayed.
All antigen-binding proteins were diluted to 30 μg/mL with a solution of 1% BSA in PBS (1% BSA/PBS), followed by a 3-fold dilution across 10 gradients. The diluted proteins were each added at 20 μL per well to a 96-well U-bottom plate, with a negative control (adding only 1% BSA/PBS) set up simultaneously. A suspension of cells expressing human CD73 (CHOK1-huCD73-3F4, Huabo Biopharm) in the logarithmic growth phase was taken and centrifuged (1000 rpm×5 min), and then the culture medium was discarded. The cells were resuspended in 1% BSA/PBS until the viable cell density was 1×10^6 cells/mL, then added at 20 μL (2×10^4 cells) per well to the 96-well U-bottom plate containing the anti-CD73 antigen-binding proteins, and incubated at room temperature for reaction for 30 min. The reacted cells in the 96-well U-bottom plate were resuspended in 1% BSA/PBS and centrifuged (300 g×3 min), and then the supernatant was discarded. This washing process was performed once. Then, a 1:200 dilution of PE-goat anti-human-Fc (Jackson ImmunoResearch, #109-115-098) was added, and the cells were incubated in the dark at room temperature for reaction for 15 min. The reacted cells in the 96-well U-bottom plate were further resuspended in 1% BSA/PBS and centrifuged (300 g×3 min), and then the supernatant was discarded. This washing process was performed 3 times. Finally, the cells were resuspended in 100 μL of 1% BSA/PBS per well, and the fluorescence intensity in the PE channel was detected using a flow cytometer (BD, #Canto II).
The results for the binding activity of the antibody-drug conjugate 1, the antibody-drug conjugate 2, and the 900698 naked antibody are shown in FIG. 2 (represented as 1-3 in FIG. 2, respectively).

Molecule | ka (Monkey CD73) [M⁻¹ s⁻¹] | kd (Monkey CD73) [s⁻¹] | killing effect on MDA-MB-231 cells (MDA-MB-231 cells) | killing effect on MCF-7 cells (MCF-7 cells) | binding activity (affinity) for cells expressing human CD73 [1]
B1 | 55000 | 1.92e-06 | excellent killing effects | no killing effect | good affinity
B2 | 454000 | 0.000114 | excellent killing effects | no killing effect | good affinity
B3 | 148000 | 1.8e-05 | no killing effect | no killing effect | good affinity
